Common to all, as to assay: cell-based or functional assay
Assay [1] deals with CAMK1D (CaMKI delta) Calcium/calmodulin-dependent protein kinase I delta (UniProt Q8IU85 1-385, limits assumed).
Assay [2] has as its target T1, MAP4K2 (GCK) Mitogen-activated protein kinase kinase kinase kinase 2 (UniProt Q12851 1-820, limits assumed).
T1 sequence (looked up): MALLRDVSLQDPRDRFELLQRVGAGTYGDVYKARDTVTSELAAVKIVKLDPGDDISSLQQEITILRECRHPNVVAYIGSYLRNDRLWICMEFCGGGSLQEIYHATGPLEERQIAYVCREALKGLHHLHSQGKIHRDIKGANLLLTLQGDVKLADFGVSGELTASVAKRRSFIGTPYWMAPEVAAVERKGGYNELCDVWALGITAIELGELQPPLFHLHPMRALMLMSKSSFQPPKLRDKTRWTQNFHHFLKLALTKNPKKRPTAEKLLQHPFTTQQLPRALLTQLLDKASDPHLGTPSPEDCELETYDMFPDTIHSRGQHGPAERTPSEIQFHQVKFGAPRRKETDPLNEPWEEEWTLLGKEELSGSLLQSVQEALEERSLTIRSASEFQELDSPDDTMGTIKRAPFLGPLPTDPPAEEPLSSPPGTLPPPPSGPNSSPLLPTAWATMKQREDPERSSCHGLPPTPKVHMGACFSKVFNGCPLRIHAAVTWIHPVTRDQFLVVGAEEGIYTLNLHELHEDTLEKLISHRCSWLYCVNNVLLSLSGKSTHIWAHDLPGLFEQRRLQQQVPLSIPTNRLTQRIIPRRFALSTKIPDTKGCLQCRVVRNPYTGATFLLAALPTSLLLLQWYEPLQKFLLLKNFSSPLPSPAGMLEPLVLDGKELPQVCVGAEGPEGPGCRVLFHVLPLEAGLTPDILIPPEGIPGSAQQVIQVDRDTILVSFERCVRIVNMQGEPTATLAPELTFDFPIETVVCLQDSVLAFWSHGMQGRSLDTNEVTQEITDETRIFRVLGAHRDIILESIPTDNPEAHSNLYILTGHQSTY

In the assay “IRAK4 (interleukin-1 …)” the target is T2, IRAK4 (interleukin-1 receptor-associated kinase 4) (UniProt Q9NWZ3 1-460, limits assumed).
T2 sequence (looked up): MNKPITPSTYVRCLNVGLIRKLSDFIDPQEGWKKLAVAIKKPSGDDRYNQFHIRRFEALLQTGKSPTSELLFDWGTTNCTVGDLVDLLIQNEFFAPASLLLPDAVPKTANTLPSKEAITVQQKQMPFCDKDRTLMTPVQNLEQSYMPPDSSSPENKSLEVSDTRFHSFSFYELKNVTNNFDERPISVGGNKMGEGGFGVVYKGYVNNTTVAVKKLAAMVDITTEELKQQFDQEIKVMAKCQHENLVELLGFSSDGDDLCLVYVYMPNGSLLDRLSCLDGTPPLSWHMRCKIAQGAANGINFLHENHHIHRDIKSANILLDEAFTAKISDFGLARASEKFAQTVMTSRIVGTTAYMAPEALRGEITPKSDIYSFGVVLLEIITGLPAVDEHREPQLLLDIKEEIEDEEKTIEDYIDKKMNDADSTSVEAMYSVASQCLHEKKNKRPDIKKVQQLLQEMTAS

The target of the next assay is T3, MATK (HYL) (UniProt P42679 1-507, limits assumed).
T3 sequence (looked up): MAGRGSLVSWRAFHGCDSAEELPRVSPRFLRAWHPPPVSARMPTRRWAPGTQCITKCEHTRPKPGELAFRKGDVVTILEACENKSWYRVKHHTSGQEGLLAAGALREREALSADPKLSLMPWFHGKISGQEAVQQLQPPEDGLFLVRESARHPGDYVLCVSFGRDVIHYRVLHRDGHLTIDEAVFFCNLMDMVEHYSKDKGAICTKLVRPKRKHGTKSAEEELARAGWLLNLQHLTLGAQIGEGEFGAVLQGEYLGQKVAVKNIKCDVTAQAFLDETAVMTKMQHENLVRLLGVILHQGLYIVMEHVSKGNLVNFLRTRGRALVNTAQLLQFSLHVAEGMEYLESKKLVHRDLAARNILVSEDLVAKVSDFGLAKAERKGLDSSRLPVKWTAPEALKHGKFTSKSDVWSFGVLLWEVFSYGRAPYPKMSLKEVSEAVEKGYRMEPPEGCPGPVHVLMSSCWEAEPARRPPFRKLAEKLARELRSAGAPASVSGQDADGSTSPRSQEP

The target in assay [3] is RPS6KB1 (p70S6K) Ribosomal protein S6 kinase, 70 kDa, polypeptide 1 (human (printed as (h)), UniProt P23443 1-421, limits assumed).
Chain of RPS6KB1 (p70S6K) Ribosomal protein S6 kinase, 70 kDa, polypeptide 1 (human (printed as (h)), UniProt P23443 1-421, limits assumed) (P23443 1-421 limits assumed): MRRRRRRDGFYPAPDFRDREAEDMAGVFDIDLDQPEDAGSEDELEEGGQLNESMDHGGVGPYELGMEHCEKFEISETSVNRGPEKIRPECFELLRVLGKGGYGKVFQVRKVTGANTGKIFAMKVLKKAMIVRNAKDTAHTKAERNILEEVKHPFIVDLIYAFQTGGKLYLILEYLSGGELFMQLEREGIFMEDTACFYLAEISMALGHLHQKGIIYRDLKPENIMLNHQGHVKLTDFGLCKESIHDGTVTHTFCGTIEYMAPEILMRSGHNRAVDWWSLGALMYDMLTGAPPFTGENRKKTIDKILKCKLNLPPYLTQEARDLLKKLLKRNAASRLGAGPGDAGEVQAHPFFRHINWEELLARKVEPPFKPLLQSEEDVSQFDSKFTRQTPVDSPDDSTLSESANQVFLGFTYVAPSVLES
Assay [4] deals with T4, CHEK1 (CHK1) CHK1 checkpoint homolog (UniProt O14757 1-476, limits assumed).
T4 sequence (looked up): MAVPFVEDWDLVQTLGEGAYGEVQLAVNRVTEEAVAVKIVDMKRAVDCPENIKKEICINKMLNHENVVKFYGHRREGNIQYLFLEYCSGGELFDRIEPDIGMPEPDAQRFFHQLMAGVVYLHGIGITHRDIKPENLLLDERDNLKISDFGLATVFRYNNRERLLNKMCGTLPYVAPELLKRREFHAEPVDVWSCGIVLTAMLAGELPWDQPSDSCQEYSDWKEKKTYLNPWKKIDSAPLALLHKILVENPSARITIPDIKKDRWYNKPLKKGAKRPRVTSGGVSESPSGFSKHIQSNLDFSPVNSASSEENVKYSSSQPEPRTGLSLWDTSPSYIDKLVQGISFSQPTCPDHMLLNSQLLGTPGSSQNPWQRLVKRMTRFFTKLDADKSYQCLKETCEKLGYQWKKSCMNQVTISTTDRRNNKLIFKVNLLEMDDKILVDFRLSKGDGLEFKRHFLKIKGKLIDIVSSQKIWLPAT

For the next assay, the target named is CLK3 (UniProt P49761 1-490, limits assumed).
Chain of CLK3 (P49761 whole entry): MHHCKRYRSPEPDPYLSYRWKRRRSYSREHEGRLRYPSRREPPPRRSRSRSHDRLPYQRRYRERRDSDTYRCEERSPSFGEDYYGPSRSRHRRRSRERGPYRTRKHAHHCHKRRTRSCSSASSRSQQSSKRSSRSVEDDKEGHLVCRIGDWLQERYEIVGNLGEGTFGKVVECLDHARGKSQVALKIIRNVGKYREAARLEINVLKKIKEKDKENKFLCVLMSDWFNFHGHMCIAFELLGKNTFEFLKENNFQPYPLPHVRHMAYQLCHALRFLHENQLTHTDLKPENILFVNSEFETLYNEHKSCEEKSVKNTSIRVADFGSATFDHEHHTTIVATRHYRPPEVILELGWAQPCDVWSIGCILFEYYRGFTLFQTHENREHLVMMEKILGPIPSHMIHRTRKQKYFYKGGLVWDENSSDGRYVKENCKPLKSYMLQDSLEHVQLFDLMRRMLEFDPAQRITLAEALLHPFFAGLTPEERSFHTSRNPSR
The next assay has as its target PRKCG (PKC gamma) (UniProt P05129 1-697, limits assumed).

Chain of CAMK1D (CaMKI delta) Calcium/calmodulin-dependent protein kinase I delta (Q8IU85 whole entry, stated change not applied): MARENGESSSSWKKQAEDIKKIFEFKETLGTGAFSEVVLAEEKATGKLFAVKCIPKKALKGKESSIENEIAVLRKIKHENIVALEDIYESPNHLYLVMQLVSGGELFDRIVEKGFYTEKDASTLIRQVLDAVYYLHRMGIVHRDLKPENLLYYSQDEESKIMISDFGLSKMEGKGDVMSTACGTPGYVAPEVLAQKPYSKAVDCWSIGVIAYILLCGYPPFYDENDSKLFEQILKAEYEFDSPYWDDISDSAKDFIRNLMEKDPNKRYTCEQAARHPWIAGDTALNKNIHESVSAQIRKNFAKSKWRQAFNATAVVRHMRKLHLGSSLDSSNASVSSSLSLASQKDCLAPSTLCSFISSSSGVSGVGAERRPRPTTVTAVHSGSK

As for SGRPPMIVWFNRPFLIAVSHTHGQTILFMAKVINPVGA [D3 peptide], the “% Inhibition mean” value in assay [1] amounted to 98%; in assay [2] it was 98.4%; with IRAK4 (interleukin-1 …) it was 96%; in the assay with MATK (HYL), 55.6%; in assay [3] it was 100%; in assay [4] it was 74%. The figures for the “% Inhibition mean” value with CLK3 and with PRKCG (PKC gamma) were 46% and 81%, respectively.

The values are drawn from patent US20100184658A1 (published 2010).
